Experimental findings from paper PMC11981803 are described below.

Test [1] concerns the target transmembrane domain of SaeS (SaeS TM), reconstituted into DMPC/DHPC bicelles (Staphylococcus aureus). The test can be described thus: SDS-PAGE.
Test [2] has the same target. The test can be described thus: SPR.

Sequence of transmembrane domain of SaeS (SaeS TM), reconstituted into DMPC/DHPC bicelles (Staphylococcus aureus) (Q2FIT5 whole entry, the tested form may be a part): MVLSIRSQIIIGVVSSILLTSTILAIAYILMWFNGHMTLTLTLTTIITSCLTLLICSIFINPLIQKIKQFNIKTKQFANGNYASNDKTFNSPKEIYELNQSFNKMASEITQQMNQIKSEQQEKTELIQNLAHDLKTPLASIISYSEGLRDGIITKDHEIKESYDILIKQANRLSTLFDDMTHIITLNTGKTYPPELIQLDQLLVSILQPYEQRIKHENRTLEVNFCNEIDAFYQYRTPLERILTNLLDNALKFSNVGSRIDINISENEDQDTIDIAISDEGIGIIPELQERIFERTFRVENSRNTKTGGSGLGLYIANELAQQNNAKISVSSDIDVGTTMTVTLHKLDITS

In general, stoichiometry N refers to the number of molecules, sites or subunits per partner or assembly. In test [1], “transmembrane domain of SaeS (SaeS TM), reconstituted into DMPC/DHPC bicelles (domain or fragment)” had a stoichiometry N of 2.
What is called Kd is the concentration at which binding is half-saturated. A higher Kd goes with a looser complex. Broadly, the koff is the rate constant with which the complex falls apart. Usually kon stands for the second-order rate constant of association. Low readings indicate slow association, high ones fast association. In test [2], “Human neutrophil defensin-1 (from UniProt P59665 65-94) (peptide)” yielded a Kd of 1.07 µM, a koff of 0.0186 s⁻¹ and a kon of 17400 M⁻¹ s⁻¹.
